Data from PMC4755347.

Molecular target: C. jejuni outer membrane channel CmeC (C. jejuni) (UniProt Q8RTE3)
Test: crystal structure

## C. jejuni outer membrane channel CmeC (from UniProt Q8RTE3 1-492) (natural protein)
  stoichiometry N: 3
